Assay results published in patent publication US7659073 (HYBRITECH, dated 2010).

T1: α1-antichymotrypsin (ACT) (UniProt P01011 24-423)
T1 sequence (looked up): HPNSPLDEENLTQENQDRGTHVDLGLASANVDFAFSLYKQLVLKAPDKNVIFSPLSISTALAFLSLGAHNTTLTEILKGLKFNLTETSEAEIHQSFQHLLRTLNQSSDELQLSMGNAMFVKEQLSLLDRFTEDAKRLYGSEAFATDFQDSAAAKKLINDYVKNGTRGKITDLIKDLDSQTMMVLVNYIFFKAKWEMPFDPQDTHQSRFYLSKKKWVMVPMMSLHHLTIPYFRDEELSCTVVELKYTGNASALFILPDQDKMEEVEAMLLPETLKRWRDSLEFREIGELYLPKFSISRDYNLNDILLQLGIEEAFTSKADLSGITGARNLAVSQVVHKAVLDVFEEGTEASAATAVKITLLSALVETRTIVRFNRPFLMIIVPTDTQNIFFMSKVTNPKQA

B1: [-7]pPSA (enzyme)
chain: not shown
notes: The purified peak holds about equal levels of [-7]pPSA and [-5]pPSA, which are not resolved from each other; also called [-7]proPSA; full length [-7]pPSA
B2: [-2]pPSA (enzyme)
chain: not shown
notes: It is mature PSA preceded by the leader SR; also called [-2]proPSA
B3: [-4]pPSA (enzyme)
chain: not shown
notes: Recombinant from AV12 cells; also found in pooled prostate cancer serum; also called [-4]proPSA
B4: [-5]pPSA (enzyme)
chain: not shown
notes: Not resolved from [-7]pPSA by HIC-HPLC; tested as an about equal mixture with [-7]pPSA; also called [-5]proPSA; part of the [-5/-7]pPSA peak

What was measured:
[1] = molecular target: T1, α1-antichymotrypsin (ACT); experiment: incubation with ACT for two hours at 37° C., HIC-HPLC profile
Description: High performance hydrophobic interaction chromatography (HIC-HPLC) was performed using a polypropylaspartamide column (PolyLC, distributed by Western Analytical, Temecula, Calif.). The column was 4.6×250 mm in length with a 1000 Å pore size. Samples were applied in 1.5 M ammonium sulfate and eluted with a gradient: Buffer A: 1.2 M sodium sulfate, 25 mM sodium phosphate, pH 6.3, and Buffer B: 50 mM sodium phosphate, 5% v/v 2-propanol. The gradient was […], 1 min, 30-80% B, 12 min, then isocratic at 80% B for 2 min before equilibration in Buffer A. High sensitivity peak detection was obtained with a Varian Model 9070 scanning fluorescence detector using an excitation of 232 nm and emission of 334 nm to detect the tryptophan residues in protein.
To confirm that the pro forms of PSA are not reactive with ACT, a mixture of purified mature PSA, [−4]pPSA and [−7, −5]pPSA, were incubated with ACT. […] Only the mature PSA forms an ACT complex.

[2] = molecular target: T1, α1-antichymotrypsin (ACT); experiment: incubation with ACT, HIC-HPLC profile

Binder | binding result [1] | binding result [2]
B1 | no binding | 
B2 |  | no binding (tested: 4× excess of ACT)
B3 |  | no binding (tested: 4× excess of ACT)
B4 |  | no binding (tested: 4× excess of ACT)
